Patent US20190367607A1 (DUKE UNIVERSITY, published 2019)
Changes are numbered by the printed parent chain.

B1: HB22-103 (antibody, V domains shown)
VH: QVQLQQPGTELVKPGASVKLSCKASGYTFTSYWMHWVKQRPGQGLEWIGMIHPNRGTTNYNEKFKSKATLTVDKSSSTAYMQLSSLTSEDSAVYYCARYYDYDPDYWGQGTTLTVSS
VL: DIVLTQSPATLSVTPGDSVSLSCRASQSISNNLHWFQQKSHESPRLLIKYGYQSISGIPSRFSGSGSGTDFTLSINSVETEDFGMYFCQQSYRWPYTFGGGTKLEIK
notes: also called HB22-103 mAb; HB22 mAb
B2: HB22-115 (antibody, V domains shown)
VH: B1 VH with T9A, R55S, T57S, N61S
VL: B1 VL with S20T, S28G, F36Y, K39Q, Y50F, G51T, Y52S, I55V, I75V, Y92N
notes: Mouse IgG1 monoclonal antibody to human CD22; also called HB22-115 mAb; HB22 mAb
B3: HB22-107 (antibody, V domains shown)
VH: DVKLVESGEGLVKPGGSLKLSCAASGFTFSSYAMSWVRQTPEKRLEWVAYITSGGDYIYYADTVKGRFTISRDDARNTLYLQMSSLKSEDTAMYYCTRDQGYYYDGRPTWFAYWGQGTLVTVSA
VL: DIVMIQSPSSLAMSVGQKVTMRCKSSQSLLSSSNQKNYLAWYQQKPGQSPKLLVYFASTRESGVPDRFIGSGSGTDFTLTINSVQAEDLADYFCQQHYSTPLTFGAGTKLELK
notes: Mouse IgG1 monoclonal antibody to human CD22; also called HB22-107 mAb; HB22 mAb

target: T1, human CD22 on B cells of hCD22-Tg+/+ mCD22-/- transgenic mice (human, UniProt P20273 20-847); test: flow cytometry of blood B220+ B cells from hCD22-Tg mice 7 days after mAb injection, stained with anti-mouse IgG1
T1 construct: whole, on cells; Expressed from the human CD22 gene with its endogenous regulatory elements
Experimental: FIGS. 20A-20B are a set of histograms and scatter plots showing B10 cell-depleting mAbs in hCD22-Tg mice bind B220⁺B cells. Blood lymphocytes isolated from hCD22-Tg mice given either HB22-103, HB22-107, HB22-115 or an isotype-matched (IgG1) mAb (250 μg/mouse) 7 days earlier in FIG. 16 were assessed for relative HB22 mAb binding by immunofluorescence staining with fluorochrome-conjugated anti-mouse IgG1 isotype-specific antibody. […] Bars indicate means, with significant differences between group means indicated: **, p<0.01; ***, p<0.001.

| binding result | Binder |
| --- | --- |
| binds | B1 |
| binds | B2 |
| binds | B3 |
